± gives the standard deviation of the averaged measurements.
test system: ATP; assay: switch fluorescence ratio, 500 uM ATP over buffer (Cy3 cluster intensity, sum of 5 cycles each) (fold (ratio)); higher = stronger signal-on switching upon ATP binding; sequences stand for … in TCGTCGGCAGCGTCAGATGTGTATAAGAGACAGTTTTTTTTTTTTTTTTTTTTTTTTT…TC; details: aptamer strand: ATP DNA aptamer (quencher-CACCTGGGGGAGTATTGCGGAGGAAGG + anchor), 100 nM annealed; ATP concentration: 500 uM
Outline: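 Five buffer/ATP imaging cycles were run on Cy3-labelled switching-strand clusters on a modified Illumina MiSeq flow-cell, with NaOH stripping and re-annealing between cycles. In each cycle, clusters annealed to 100 nM quencher-labelled ATP aptamer were imaged in selection buffer, then after 15 min with 500 uM ATP at 22 °C. Per cluster, the fluorescence ratio is summed target-cycle over summed buffer-cycle Cy3 intensity, averaged per switch-domain sequence. Only clusters within 100-1000 RFU were kept.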
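Also: ATP exposure 15 min at 22 °C before imaging.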

Sequence | switch fluorescence ratio
ACCGACCGGG | 1.074 ± 0.005
ACCGCACGGA | 1.55 ± 0.29
ACCGCGGTCG | 0.974 ± 0.049
ACCGGACATG | 1.07 ± 0.034
ACCGGAGGGG | 1.17 ± 0.26
ACCGGAGTTC | 1.23 ± 0.014
ACCGGCACAT | 1.273 ± 0.0092
ACCGGCCAGC | 1.002 ± 0.004
ACCGGCCTGG | 1 ± 0.025
ACCGGGAAAG | 1.062 ± 0.0096
ACCGGGATGG | 0.994 ± 0.024
ACCGGGGGGG | 1 ± 0.035
ACCGGTAAAT | 1.01 ± 0.037
ACCGTAGGGG | 0.973 ± 0.016
ACCGTGAGGC | 1.02 ± 0.088
ACCGTGTGTG | 0.995 ± 0.046
ACCGTTTGGT | 0.999 ± 0.038
ACCGTTTTGT | 1.02 ± 0.019
ACCTACGAGT | 1.37 ± 0.044
ACCTAGCGCA | 1.33 ± 0.045
ACCTAGTTTT | 1.011 ± 0.0078
ACCTATTCGT | 1.054 ± 0.0047
ACCTGAATAG | 1.14 ± 0.11
ACCTGGTGGG | 0.984 ± 0.028
ACCTTAGTGC | 1.1 ± 0.048

Sequence | switch fluorescence ratio
ACGAAAGGTT | 1.034 ± 0.0089
ACGAAATAGT | 1.183 ± 0.0065
ACGAACGATC | 1.35 ± 0.022
ACGAAGAAGT | 1.012 ± 0.0048
ACGAAGGATA | 1.04 ± 0.014
ACGAAGGTCT | 0.998 ± 0.012
ACGAAGTTAG | 0.998 ± 0.015
ACGACCGTTG | 1.02 ± 0.061
ACGACGGTAG | 1.02 ± 0.029
ACGAGAGGGT | 0.973 ± 0.023
ACGAGGACAG | 1.06 ± 0.0025
ACGAGGGAAA | 2.12 ± 1.6
ACGAGGGTCA | 1.01 ± 0.06
ACGAGGGTGG | 1.065 ± 0.0084
ACGAGGGTTG | 1.01 ± 0.026
ACGAGTAGGC | 0.986 ± 0.021
ACGAGTTAGT | 0.9933 ± 0.0045
ACGATCCACG | 1.04 ± 0.045
ACGATCGGCT | 1.06 ± 0.2
ACGATGAGGA | 0.982 ± 0.07
ACGATGTGCT | 0.982 ± 0.015
ACGATTATTC | 1.07 ± 0.039
ACGATTTAAG | 1.03 ± 0.05
ACGCATTATT | 1.62 ± 0.051
ACGCATTCAA | 1.236 ± 0.0039

Sequence | switch fluorescence ratio
ACGCATTGGT | 1.188 ± 0.0086
ACGCCCACGT | 1.22 ± 0.038
ACGCCCACTA | 1.38 ± 0.1
ACGCCCTGGC | 1.04 ± 0.045
ACGCGACATT | 1.12 ± 0.039
ACGCGACGG | 1.13 ± 0.018
ACGCGATATG | 1.253 ± 0.01
ACGCGCCGGG | 1.063 ± 0.0039
ACGCGGACAC | 1.22 ± 0.065
ACGCGGGACA | 1.04 ± 0.014
ACGCGGGGGT | 1.07 ± 0.069
ACGCGTCGGC | 1.06 ± 0.013
ACGCTAAATA | 1.26 ± 0.03
ACGCTACATT | 1.39 ± 0.031
ACGCTCCTGG | 1.15 ± 0.034
ACGCTGCCAG | 1.04 ± 0.02
ACGCTTAGAC | 1.66 ± 0.24
ACGCTTGTGC | 1.08 ± 0.042
ACGGAACAGC | 1.11 ± 0.13
ACGGAAGGGA | 0.991 ± 0.036
ACGGAAGGGT | 1.04 ± 0.043
ACGGAAGGTT | 1.03 ± 0.043
ACGGAATATT | 1.171 ± 0.0019
ACGGACGGGG | 1.11 ± 0.036
ACGGAGGGCT | 1.02 ± 0.015

Sequence | switch fluorescence ratio
ACGGAGTTAC | 1.84 ± 0.18
ACGGCAAGGG | 1.15 ± 0.063
ACGGCACTCG | 1.4 ± 0.1
ACGGCAGAGG | 1.09 ± 0.02
ACGGCATTAA | 1.165 ± 0.0043
ACGGCATTGC | 1.19 ± 0.037
ACGGCCACTG | 1.07 ± 0.019
ACGGCCGGGA | 1.02 ± 0.026
ACGGCCTGGG | 1.03 ± 0.03
ACGGCGAGGG | 1.02 ± 0.039
ACGGCTTAGG | 1.03 ± 0.034
ACGGGACGGC | 1.04 ± 0.14
ACGGGACTAG | 1.02 ± 0.099
ACGGGAGGGG | 1.04 ± 0.048
ACGGGATG | 1.039 ± 0.0044
ACGGGATGGG | 1.062 ± 0.01
ACGGGCAGGG | 1.03 ± 0.041
ACGGGCCTTG | 0.987 ± 0.0063
ACGGGCTGGG | 1.1 ± 0.02
ACGGGCTGTG | 1.01 ± 0.054
ACGGGCTTCG | 1.05 ± 0.049
ACGGGGACGG | 1.03 ± 0.042
ACGGGGGAAC | 1.046 ± 0.0071
ACGGGGGCCT | 1.014 ± 0.0045
ACGGGGGGAG | 1.01 ± 0.035

Source: the supplement of paper PMC10126150
